The values below come from patent US20210324094A1 (MOGAM INSTITUTE FOR BIOMEDICAL RESEARCH, published 2021).

One assay has as its target T1, Human IR (human, UniProt P06213 28-956, limits assumed).
T1 construct: the natural receptor is processed into alpha and beta chains; also called human insulin receptor
The assay can be described thus: SPR, IR immobilised on CM5 chip, IR739 flowed, pH 7.0. As for the experimental part: (§1) Human IR or mouse IR at 1 μg/ml was immobilized with acetate (pH 4.0) on a CM5 sensor chip. […] For measurement conditions, a flow rate was set as 30 μl/min, and an association time and a dissociation time were set as 120 seconds and 600 seconds, respectively. For regeneration, 10 mM glycine-HCl (pH 1.5) was flowed for 30 seconds.
(In general: In SPR one partner is held on a chip, and binding of the other changes the refractive index at the surface.)

In a further assay the target is T2, Mouse IR (mouse, UniProt P15208 28-946, limits assumed).
T2 construct: also called mouse insulin receptor
The assay is described as above. As for the experimental part:
as §1

B1: IR739 (antibody, human IgG1, kappa, V domains shown)
VH: EVQLVESGGGLVQPGGSLRLSCAASGFTFSSYYMSWVRQAPGKGLEWVSAISYGGSSTYYADSVKGRFTISRDNSKNTLYLQMNSLRAEDTAVYYCARHPSYGTVNHAYFDVWGQGTLVTVSS
VL: DIQMTQSPSSLSASVGDRVTITCGASRDVSSYLAWYQQKPGKAPKLLIYDANILQSGVPSRFSGSGSGTDFTLTISSLQPEDFATYYCLEYNNLPLTFGQGTKVEIKR
notes: Conventional IgG from a human synthetic scFv library; also called IR739 antibody; anti-IR antibody
As a reminder, the Kd is a measure of binding affinity in units of concentration. Lower therefore signals a tighter complex. As a reminder, the koff is a measure of how fast the partners let go of each other. As a reminder, the kon is a measure of how fast the partners come together. The low end stands for slower complex formation, the high end for faster complex formation. B1: in the assay with Human IR, the affinity, expressed as Kd, was 15 nM; the koff was 0.00144 s⁻¹; the kon is 96000 M⁻¹ s⁻¹. Moreover, in the assay with Mouse IR, the Kd was 6.4 nM, the off-rate (koff) was 0.00061 s⁻¹ and the kon worked out at 95300 M⁻¹ s⁻¹.
